Experimental data reported in patent US20250084158A1.
pEC50: −log10 of the molar value.

What was measured:
[1] = target: human CLL-1 on cells (human) (UniProt Q5QGZ9); assay: cell-based or functional assay
[2] = target: human CLL-1 on cells (human) (UniProt Q5QGZ9); assay: FACS (PE-anti-human IgG), U937 cells
[3] = target: human CLL-1 on cells (human) (UniProt Q5QGZ9); assay: FACS (PE-anti-human IgG), HL-60 cells

human CLL-1 on cells (human), sequence (Q5QGZ9 whole entry): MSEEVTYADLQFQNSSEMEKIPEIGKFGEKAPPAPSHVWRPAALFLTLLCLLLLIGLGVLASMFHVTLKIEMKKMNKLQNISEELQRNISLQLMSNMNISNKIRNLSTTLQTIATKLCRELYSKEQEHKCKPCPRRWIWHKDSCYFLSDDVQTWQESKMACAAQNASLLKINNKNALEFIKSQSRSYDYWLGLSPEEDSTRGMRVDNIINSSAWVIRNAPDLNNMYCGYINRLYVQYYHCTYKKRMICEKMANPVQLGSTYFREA

- CD25 on CD4 T cells, HL60 targets, EC50 [1]: 7.12 nM
- CD25 on CD4 T cells, U937 targets, EC50 [1]: 2.53 nM
- CD25 on CD8 T cells, HL60 targets, EC50 [1]: 7.68 nM
- CD25 on CD8 T cells, U937 targets, EC50 [1]: 2.88 nM
- CD69 on CD4 T cells, HL60 targets, EC50 [1]: 2.33 nM
- CD69 on CD4 T cells, U937 targets, EC50 [1]: 1.19 nM
- CD69 on CD8 T cells, HL60 targets, EC50 [1]: 2.89 nM
- CD69 on CD8 T cells, U937 targets, EC50 [1]: 0.713 nM
- U937 cell lysis, EC50 [1]: 0.128 nM
- pEC50 [2]: 8.34
- pEC50 [3]: 7.45
Substance: MCLA-117 (bispecific antibody)
